Experimental data reported in article PMC2656774 (Cell, 2009).

Target: human eIF4A1, full-length (human, UniProt P60842 1-406)
Assay: SPR

Chain of human eIF4A1, full-length (P60842 whole entry): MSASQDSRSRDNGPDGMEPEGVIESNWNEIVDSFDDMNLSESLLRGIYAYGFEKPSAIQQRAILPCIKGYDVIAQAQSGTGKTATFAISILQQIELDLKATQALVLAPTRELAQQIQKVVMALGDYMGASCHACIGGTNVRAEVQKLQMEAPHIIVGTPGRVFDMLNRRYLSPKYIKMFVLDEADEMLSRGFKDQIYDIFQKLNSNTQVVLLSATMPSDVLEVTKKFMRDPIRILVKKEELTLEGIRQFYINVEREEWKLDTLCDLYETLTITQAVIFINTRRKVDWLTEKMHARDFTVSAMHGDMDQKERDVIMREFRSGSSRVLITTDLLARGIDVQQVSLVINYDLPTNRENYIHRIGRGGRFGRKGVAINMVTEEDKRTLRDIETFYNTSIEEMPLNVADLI

B1: human eIF4H isoform 2 (natural protein)
chain: not shown
- binding result: binds
